Reference: patent US5925540A, “Synthetic antifreeze peptide and synthetic gene coding for its production” (Virginia Tech Intellectual Properties, Inc., priority 1991, dated 1999)

Test system: JM109(DE3)
Experiment: Studies of cell viability in JM109(DE3) strains bearing pX28 or pX284 after IPTG induction
Assay type: cell-based, E.coli
Details: WF8R expressed as P10 fusion protein from pX28 / pX284; effects more pronounced in the pX28 harboring strain
Description: The pX28 and pX284 were transformed into JM109(DE3). The proteins produced in either the JM109(DE3)[pX28] or in the JM109(DE3)[pX284] after induction by IPTG in mid- or late-logarithmic growth phase, have been analyzed by sodium dodecyl sulfate (SDS)-polyacrylamide gel electrophoresis (SDS-PAGE). […] Studies of cell viability in these strains have shown that both strains are adversely affected with respect to growth and stability of the plasmid (these effects were more pronounced in the pX28 harboring strain). […] To avert this problem the applicants decided to protect the fusion protein from intracellular degradation, as well as to protect the cells from the toxicity of WF8R, by adding to the fusion a C-terminal end derived from E.coli β-galactosidase.

B1: WF8R: synthetic antifreeze peptide of 98 amino acids with eight eleven-amino-acid repeats, modeled on winter flounder AFP, expressed in E. coli (protein)
chain: MSTASDAAAAAAATAATAAAAAAATAATAAAAAAATAATAAAAAAATAATAAAAAAATAATAAAAAAATAATAAKAAALTAANAAAAAAATAAAAARG
toxicity to the host cells (growth and stability of the plasmid adversely affected): toxic to the cells
